Numbering of substitutions follows the chain as printed. Names may count otherwise.
B1: ALC1^fl R860W: constitutively active mutant of ALC1 (protein)
chain: FLLRLHTEGRAEAARVQEQDLRQWGLTGIHLRSYQLEGVNWLAQRFHCQNGCILGDEMGLGKTCQTIALFIYLAGRLNDEGPFLILCPLSVLSNWKEEMQRFAPGLSCVTYAGDKEERACLQQDLKQESRFHVLLTTYEICLKDASFLKSFPWSVLVVDEAHRLKNQSSLLHKTLSEFSVVFSLLLTGTPIQNSLQELYSLLSFVEPDLFSKEEVGDFIQRYQDIEKESESASELHKLLQPFLLRRVKAEVATELPKKTEVVIYHGMSALQKKYYKAILMKDLDAFENETAKKVKLQNILSQLRKCVDHPYLFDGVEPEPFEVGDHLTEASGKLHLLDKLLAFLYSGGHRVLLFSQMTQMLDILQDYMDYRGYSYERVDGSVRGEERHLAIKNFGQQPIFVFLLSTRAGGVGMNLTAADTVIFVDSDFNPQNDLQAAARAHRIGQNKSVKVIRLIGRDTVEEIVYRKAASKLQLTNMIIEGGHFTLGAQKPAADADLQLSEILKFGLDKLLASEGSTMDEIDLESILGETKDGQWVSDALPAAEGGSRDQEEGKNHMYLFEGKDYSKEPSKEDRKSFEQLVNLQKTLLEKASQEGRSLRNKGSVLIPGLVEGSTKRKRVLSPEELEDRQKKRQEAAAKRRRLIEEKKRQKEEAEHKKKMAWWESNNYQSFCLPSEESEPEDLENGEESSAELDYQDPDATSLKYVSGDVTHPQAGAEDALIVHCVDDSGHWGRGGLFTALEKRSAEPRKIYELAGKMKDLSLGGVLLFPVDDKESRNKGQDLLALIVAQHRDRSNVLSGIKMAALEEGLKKIFLAAKKKKASVHLPRIGHATKGFNWYGTERLIWKHLAARGIPTYIYYFPRSK
modifications: left off: His6, end not stated, state not stated
B2: ALC1^fl R611A/S612A/R860W: ALC1^RLS Arg anchor (R611) and adjacent residue (S612) mutated to alanines (protein)
chain: B1 chain with R596A, S597A
modifications: left off: His6, end not stated, state not stated
notes: ALC1^RLS Arg anchor (R611) and adjacent residue (S612) mutated to alanines

Key:
[1] = tested on: ALC1-catalyzed remodeling of WT/WT nucleosomes; test: Ensemble FRET nucleosome remodeling, WT/WT nucleosomes; format: biochemical, Homo sapiens ALC1; Xenopus laevis histones
Description: (§1) cDNAs for ALC1 and PARP1 were of Homo sapiens origin. Histone proteins (recombinantly expressed in E. coli) were of Xenopus laevis origin. Cell lines as well as growth conditions are described in the Method Details.
(§2) Oligonucleotides used in this study were ordered from IDT (see Table S3). The ALC1^fl (16-879) construct contains the human ALC1 sequence and a 6xHis-tag, as previously published ([Lehmann et al., 2017]). All point mutations were generated by PCR-based site-directed mutagenesis. The plasmid for human PARP1 (1-1014) with an N-terminal 6xHis-tag was a kind gift from John M. Pascal ([Langelier et al., 2017]).
(§3) The DNA constructs used in the nucleosome assembly for single-molecule and ensemble remodeling studies comprised the Widom 601 nucleosome positioning sequence ([Lowary and Widom, 1998]) as well as either 3 bp or 12 bp of linker DNA on one side and 78 bp on the other side (for the single-molecule remodeling construct) or 63 bp of linker DNA on one side and no linker DNA on the other side (for the ensemble remodeling construct). […] The DNA constructs for the assembly of nucleosomes used in fluorescence anisotropy experiments and ATPase assays comprised the Widom 601 positioning sequence without additional linker DNA (for the fluorescence anisotropy construct) or 63 bp of linker DNA on one side and no linker DNA on the other side (for the ATPase assay construct). […]
Nucleosome ensemble remodeling kinetics were measured by monitoring the Cy5 (under 620 nm and 520 nm excitation) and Cy3 (under 520 nm excitation) fluorescence emission signals of a solution of FRET-labeled nucleosomes using a Spark (Tecan) or CLARIOstar (BMG Labtech) multimode microplate reader. […] Reaction kinetics were analyzed assuming a standard Michaelis-Menten mechanism.
(§4) For fluorescence anisotropy binding experiments, the reported values represent the mean ± SEM from 3 independent experiments. […] For ensemble nucleosome remodeling time courses, each experimental condition was recorded in 3 independent experiments, and representative remodeling time courses are shown. […]

[2] = tested on: ALC1-catalyzed remodeling of APM/APM nucleosomes; test: Ensemble FRET nucleosome remodeling, APM/APM versus WT/WT nucleosomes; format: biochemical, Homo sapiens ALC1; Xenopus laevis histones; details: 20 μM remodeler, 10 nM nucleosomes, 1.5 mM ATP; n = 3 independent experiments
Description: as §1, §2, §3

[3] = tested on: individual WT/WT nucleosomes; test: smFRET remodeling directionality, WT/WT nucleosomes; format: biochemical, Xenopus laevis histones; details: 2.5 μM remodeler, 1 mM ATP, n > 100 traces
Description: (§5) The DNA constructs used in the nucleosome assembly for single-molecule and ensemble remodeling studies comprised the Widom 601 nucleosome positioning sequence ([Lowary and Widom, 1998]) as well as either 3 bp or 12 bp of linker DNA on one side and 78 bp on the other side (for the single-molecule remodeling construct) or 63 bp of linker DNA on one side and no linker DNA on the other side (for the ensemble remodeling construct). All constructs were 5’-labeled with Cy5 on the short linker end. The constructs for single-molecule experiments additionally featured a biotin on the long linker end. […] The DNA constructs for the assembly of nucleosomes used in fluorescence anisotropy experiments and ATPase assays comprised the Widom 601 positioning sequence without additional linker DNA (for the fluorescence anisotropy construct) or 63 bp of linker DNA on one side and no linker DNA on the other side (for the ATPase assay construct). […]
(§6) Using the DNA constructs for single-molecule FRET described above, we first generated oriented hexasomes with H2A-Cy3 on the short linker side using a salt dialysis method as described previously ([Dyer et al., 2004]; [Levendosky et al., 2016]; [Sabantsev et al., 2019]). […] Data were analyzed using custom scripts for the Fiji distribution of ImageJ ([Schindelin et al., 2012]; [Schneider et al., 2012]), IDL, and MATLAB ([Sabantsev et al., 2019]). […]

[4] = tested on: individual WT/APM nucleosomes; test: smFRET remodeling directionality, WT/APM nucleosomes; format: biochemical, Xenopus laevis histones; details: 2.5 μM remodeler, 1 mM ATP, n > 100 traces
Description: as §5, §6

[5] = tested on: ALC1 ATPase with WT/WT nucleosomes; test: Nucleosome-stimulated ATPase activity; format: biochemical, Homo sapiens ALC1; Xenopus laevis histones
Protocol: (§7) ATPase activity was measured using a coupled assay that measures ADP production as described previously, ([Willhoft et al., 2016]). Final concentrations of 0.45 mM NADH, 1.0 mM phosphoenolpyruvate, 54 U/ml pyruvate kinase (Sigma), and 78 U/ml lactic dehydrogenase (Sigma) were used. For measurements of nucleosome-stimulated ATPase activity, reactions contained 20 μM ALC1,2 μM WT/WT nucleosomes, and 1 mM ATP in a volume of 30 μl. Fluorescence was monitored (excitation wavelength: 340 nm; emission wavelength: 430 nm) at 37°C using a CLARIOstar microplate reader (BMG Labtech) and black low-volume 384-well microplates (Corning). For measurements of DNA-stimulated ATPase activity, the absorbance was monitored at 340 nm for reactions containing a final of 1 μM ALC1 and either 20 μM or 50 μM 145 bp nucleosomal double-stranded (ds) DNA in 100 μl. Reaction rates were determined using mean linear slopes. For measurements of nucleosome-stimulated ATPase activity, we estimated Vmax for both ALC1^fl R860W and ALC1^fl R611A/S612A/R860W using the Michaelis-Menten equation and the Km values that we obtained from nucleosome sliding kinetics in Figure 3B.
For fluorescence anisotropy binding experiments, the reported values represent the mean ± SEM from 3 independent experiments. For ATPase activity measurements, the reported values represent the mean ± standard deviation from 3 independent experiments. For ensemble nucleosome remodeling time courses, each experimental condition was recorded in 3 independent experiments, and representative remodeling time courses are shown. Relative remodeling rates derived from these curves represent the mean ± standard deviation from 3 independent experiments. For smFRET experiments, values are reported as mean ± SEM from several experiments as specified in the corresponding figure legends. For association kinetics from live-cell imaging, error bars represent SEM from N ≥ 131 traces from 3 independent experiments.

[6] = tested on: ALC1 ATPase with 145 bp dsDNA; test: DNA-stimulated ATPase activity; format: biochemical, Homo sapiens ALC1; details: 1 μM ALC1, 20 μM or 50 μM 145 bp dsDNA, 1 mM ATP; N = 3 independent experiments
Protocol: as §7, with “For measurements of nucleosome-stimulated ATPase activity, we estimated Vmax for both ALC1^fl R860W and ALC1^fl R611A/S612A/R860W using the Michaelis-Menten equation and the Km values that we obtained from nucleosome sliding kinetics in Figure 3B.” left out
as §4

[7] = tested on: individual WT/WT nucleosomes with 3 bp of linker DNA; test: smFRET remodeling, pause duration; format: biochemical, Xenopus laevis histones
Description: as §5, §6

[8] = WT/WT nucleosomes 10 nM, various remodeler concentrations, Michaelis-Menten

Molecule	FRET change upon addition of remodeler and ATP ([1]; WT/WT end-positioned nucleosomes, saturating remodeler and ATP)	fold decrease in remodeling rate, APM/APM versus WT/WT nucleosomes [2]	fraction of single-nucleosome remodeling traces with initial decrease in FRET (toward longer linker DNA) [3] [%]	fraction of traces with opposite directionality (toward shorter linker DNA) [3] [%]	fraction of WT/APM nucleosomes moved toward the shorter linker end [4] [%]	nucleosome-stimulated ATPase activity, fold higher than DNA-stimulated ATPase activity ([5]; 20 μM ALC1 with 2 μM WT/WT nucleosomes versus 1 μM ALC1 with dsDNA, 1 mM ATP)	DNA-stimulated ATPase activity, ALC1^fl R860W versus ALC1^fl R611A/S612A/R860W [6]	fold decrease of maximum rate for remodeling versus ALC1^fl R860W [1, 8]	fold increase of Michaelis constant for remodeling versus ALC1^fl R860W [1, 8]	average binding time relative to average pause duration (pause fold shorter) ([7]; remodeler concentration 20 μM) [fold]	increase in observed pause duration on lowering remodeler concentration by a factor of 4 ([7]; remodeler concentration lowered 4-fold) [%]	fold reduction of ATPase rate versus ALC1^fl R860W ([5]; 20 μM ALC1, 2 μM WT/WT nucleosomes, 1 mM ATP, 37°C, n = 3 independent experiments)	fold reduction of ATPase rate versus ALC1^fl R860W, saturating conditions (Vmax) ([5]; under saturating conditions, Vmax estimated with Michaelis-Menten equation and Km values from nucleosome sliding kinetics)
B1	FRET decreased	~ 13.7 fold	62	38	89	~ 1.6 fold	essentially identical DNA-stimulated ATPase activity	–	–	–	–	–	–
B2	–	~ 3.2 fold	–	–	–	–	essentially identical DNA-stimulated ATPase activity	~ 6.4 fold	~ 5.3 fold	2.8	30	~ 2.5 fold	~ 2 fold
